According to patent US20120115948A1:

Target: mitotic APC (Anaphase-Promoting Complex immunoprecipitated from mitotic Xenopus extract) (Xenopus)
Assay: immunoprecipitated APC-Cdc20 resuspended in mitotic extract with TAME, beads re-isolated, Western blot

half-life of dissociation: 1 min
Substance: Cdc20 (endogenous Xenopus Cdc20)
